Test results from US5418135.

Biological target: PDGF receptor (cell membrane-bound receptor for native PDGF)

## A4, Endo Lys-C fragment aa 80-110 of alkylated PDGF A monomer (peptide)
  HALF-MAX INHIBITION (3H-thymidine incorporation induced by PDGF dimer): 100 nM

## A6, Endo Lys-C fragment aa 12-41 of alkylated PDGF A monomer (peptide)
  HALF-MAX INHIBITION (3H-thymidine incorporation induced by PDGF dimer): > 200 nM

## PDGF A chain monomer, intact, Cys residues pyridylethylated (ligand)
  HALF-MAX INHIBITION (3H-thymidine incorporation induced by PDGF dimer): 100 nM
